Experimental data published in the supplement of paper PMC7877785.
± gives the uncertainty stated by the source.

Assay: self-splicing fitness, log relative to wild type (ln ratio); higher = more splicing; Tetrahymena group I intron in knt gene, E. coli kanamycin selection, DiMSum; sequences stand for … in CUCUCU…GGAGGGAAAAGUUAUCAGGCAUGCACCUGGUAGCUAGUCUUUAAACCAAUAGAUUGCAUCGGUUUAAAAGGCAAGACCGUCAAAUUGCGGGAAAGGGGUCAACAGCCGUUCAGUACCAAGUCUCAGGGGAAACUUUGAGAUGGCCUUGCAAAGGGUAUGGUAAUAAGCUGACGGACAUGGUCCUAACCACGCAGCCAAGUCCUAAGUCAACAGAUCUUCUGUUGAUAUGGAUGCAGUUCACAGACUAAAUGUCGGUCGGGGAAGAUGUAUUCUUCUCAUAAGAUAUAGUCGGACCUCUCCUUAAUGGGAGCUAGCGGAUGAAGUGAUGCAACACUGGAGCCGCUGGGAACUAAUUUGUAUGCGAAAGUAUAUUGAUUAGUUUUGGAGUACUCGUGGUCG
Outline: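 Pooled colonies went to amplicon sequencing on an Illumina HiSeq 2500 after six replicate transformations. The plates were LB agar with 100 μg/mL carbenicillin, 50 μM IPTG and 0.2% rhamnose, with or without 25 μg/mL kanamycin, incubated overnight at 37°C or 30°C. The E. coli BL21(DE3) library had all eight P1ex-region intron nucleotides randomised, the intron placed in the knt kanamycin-resistance gene on pET-22b(+). DiMSum fitness is the error-weighted combination of replicate fold changes, kanamycin against none, normalised to wild type.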

| Sequence | self-splicing fitness (ln) (37 °C) | self-splicing fitness (ln) (30 °C) |
| --- | --- | --- |
| ACACAGCAAUAUUACGCUUC | -3.08 ± 0.23 |  |
| ACACAGCAAUAUUACGCUUG | -0.733 ± 0.076 | -1.24 ± 0.063 |
| ACACAGCAAUAUUACGGAGU | -2.01 ± 0.11 | -2.39 ± 0.087 |
| ACACAGCAAUAUUACGGAUC | -2.1 ± 0.15 | -2.94 ± 0.12 |
| ACACAGCAAUAUUACGGCUC | -0.461 ± 0.088 | -0.896 ± 0.067 |
| ACACAGCAAUAUUACGGGAA | -1.79 ± 0.14 | -2.99 ± 0.22 |
| ACACAGCAAUAUUACGGGAU | -0.774 ± 0.06 | -1.91 ± 0.053 |
| ACACAGCAAUAUUACGGUAG | -3.1 ± 0.15 | -4 ± 0.17 |
| ACACAGCAAUAUUACGGUCG | -0.473 ± 0.076 | -1.09 ± 0.051 |
| ACACAGCAAUAUUACGUACC | -1.12 ± 0.15 | -1.43 ± 0.11 |
| ACACAGCAAUAUUACGUAUA | -2.5 ± 0.12 | -3.41 ± 0.13 |
| ACACAGCAAUAUUACGUCAA | -1.99 ± 0.14 | -2.25 ± 0.19 |
| ACACAGCAAUAUUACGUCGA | -0.852 ± 0.092 | -1.22 ± 0.089 |
| ACACAGCAAUAUUACGUGCU | -0.611 ± 0.065 | -1.34 ± 0.055 |
| ACACAGCAAUAUUACGUGGU | -2.82 ± 0.11 | -4.33 ± 0.16 |
| ACAGAGCAAUAUUACGAACU | -1.61 ± 0.21 | -3.35 ± 0.21 |
| ACAGAGCAAUAUUACGAAGG | -3.32 ± 0.33 | -3.82 ± 0.23 |
| ACAGAGCAAUAUUACGACGG | -1.65 ± 0.27 | -2.78 ± 0.24 |
| ACAGAGCAAUAUUACGACUA | -1.17 ± 0.42 | -1.17 ± 0.48 |
| ACAGAGCAAUAUUACGAGAA |  | -2.03 ± 0.45 |
| ACAGAGCAAUAUUACGAGCA | -2.83 ± 0.31 | -3.84 ± 0.28 |
| ACAGAGCAAUAUUACGAGGG | -2.35 ± 0.24 | -2.31 ± 0.14 |
| ACAGAGCAAUAUUACGAUGC | -2.47 ± 0.29 | -2.74 ± 0.14 |
| ACAGAGCAAUAUUACGCAUC | -2.59 ± 0.23 | -4.07 ± 0.25 |

| Sequence | self-splicing fitness (ln) (37 °C) | self-splicing fitness (ln) (30 °C) |
| --- | --- | --- |
| ACAGAGCAAUAUUACGCCGU | -0.807 ± 0.33 | -2.59 ± 0.35 |
| ACAGAGCAAUAUUACGCGUC | -2.07 ± 0.29 |  |
| ACAGAGCAAUAUUACGCUUC | -2.16 ± 0.3 | -3.96 ± 0.24 |
| ACAGAGCAAUAUUACGGAUG | -3.37 ± 0.37 | -4.02 ± 0.31 |
| ACAGAGCAAUAUUACGGCGA | -1.17 ± 0.17 | -3.14 ± 0.31 |
| ACAGAGCAAUAUUACGGCUA | -1.41 ± 0.14 | -3.1 ± 0.23 |
| ACAGAGCAAUAUUACGGGAG | -1.62 ± 0.21 | -3.51 ± 0.28 |
| ACAGAGCAAUAUUACGGGCA | -0.773 ± 0.15 | -2.58 ± 0.19 |
| ACAGAGCAAUAUUACGGGCU | -2.58 ± 0.2 | -3.02 ± 0.22 |
| ACAGAGCAAUAUUACGGUAU | -3.75 ± 0.26 | -4.21 ± 0.36 |
| ACAGAGCAAUAUUACGGUGG | -3.01 ± 0.32 | -4.17 ± 0.23 |
| ACAGAGCAAUAUUACGUAAU | -2.5 ± 0.41 | -3.43 ± 0.4 |
| ACAGAGCAAUAUUACGUAUU | -2.84 ± 0.27 | -3.66 ± 0.23 |
| ACAUAGCAAUAUUACGAAUG | -1.22 ± 0.13 | -1.65 ± 0.1 |
| ACAUAGCAAUAUUACGAUAG | -1.36 ± 0.17 | -3.38 ± 0.19 |
| ACAUAGCAAUAUUACGCACC | 0.273 ± 0.18 | -1.83 ± 0.18 |
| ACAUAGCAAUAUUACGCAUA | -1.85 ± 0.12 | -3.01 ± 0.17 |
| ACAUAGCAAUAUUACGCAUG | -1.15 ± 0.12 | -2.85 ± 0.13 |
| ACAUAGCAAUAUUACGCCCG | -0.298 ± 0.15 | -0.76 ± 0.16 |
| ACAUAGCAAUAUUACGCGCU | -0.534 ± 0.098 | -1.19 ± 0.095 |
| ACAUAGCAAUAUUACGCGGC | -2.8 ± 0.3 | -3.77 ± 0.18 |
| ACAUAGCAAUAUUACGCGUU | -2.39 ± 0.15 | -3.55 ± 0.24 |
| ACAUAGCAAUAUUACGCUCA | -0.358 ± 0.12 | -0.539 ± 0.11 |
| ACAUAGCAAUAUUACGCUUC | -1.82 ± 0.28 | -3 ± 0.29 |

| Sequence | self-splicing fitness (ln) (37 °C) | self-splicing fitness (ln) (30 °C) |
| --- | --- | --- |
| ACAUAGCAAUAUUACGGAAA | -2.11 ± 0.2 | -2.14 ± 0.26 |
| ACAUAGCAAUAUUACGGACA | -0.382 ± 0.14 | -1.57 ± 0.16 |
| ACAUAGCAAUAUUACGGAGA | -2.47 ± 0.24 | -3.28 ± 0.25 |
| ACAUAGCAAUAUUACGGGCU | -0.715 ± 0.16 | -1.4 ± 0.13 |
| ACAUAGCAAUAUUACGGUCU | -0.428 ± 0.089 | -1.46 ± 0.071 |
| ACAUAGCAAUAUUACGGUUC | -2.51 ± 0.24 | -2.93 ± 0.17 |
| ACAUAGCAAUAUUACGUAUU | -2.78 ± 0.23 | -4.38 ± 0.21 |
| ACAUAGCAAUAUUACGUUCA | -0.808 ± 0.13 | -1.39 ± 0.095 |
| ACAUAGCAAUAUUACGUUGG | -2.29 ± 0.14 | -3.23 ± 0.2 |
| ACCAAGCAAUAUUACGAGAC | -2.86 ± 0.21 | -3.68 ± 0.18 |
| ACCAAGCAAUAUUACGAGGC | -2.32 ± 0.22 | -3.14 ± 0.14 |
| ACCAAGCAAUAUUACGAGGU | -2.22 ± 0.18 | -3.76 ± 0.21 |
| ACCAAGCAAUAUUACGAUGG | -0.995 ± 0.12 | -1.76 ± 0.076 |
| ACCAAGCAAUAUUACGCAAA | -1.74 ± 0.15 | -1.56 ± 0.12 |
| ACCAAGCAAUAUUACGCAAU | -1.04 ± 0.1 | -2.01 ± 0.1 |
| ACCAAGCAAUAUUACGCACA | 0.0111 ± 0.087 | -0.684 ± 0.075 |
| ACCAAGCAAUAUUACGCAGA | -0.709 ± 0.14 | -2.84 ± 0.25 |
| ACCAAGCAAUAUUACGCAUG | -2.2 ± 0.11 | -3.75 ± 0.11 |
| ACCAAGCAAUAUUACGCGCC | 0.198 ± 0.14 | -1.35 ± 0.11 |
| ACCAAGCAAUAUUACGCGGC | -2.39 ± 0.21 | -3.19 ± 0.25 |
| ACCAAGCAAUAUUACGCGGU | -2.84 ± 0.16 | -3.54 ± 0.12 |
| ACCAAGCAAUAUUACGCUAG | -1.52 ± 0.1 | -2.03 ± 0.071 |
| ACCAAGCAAUAUUACGGAGA | -1.66 ± 0.11 | -3.16 ± 0.15 |
| ACCAAGCAAUAUUACGGAUG | -2.48 ± 0.088 | -2.47 ± 0.069 |

| Sequence | self-splicing fitness (ln) (37 °C) | self-splicing fitness (ln) (30 °C) |
| --- | --- | --- |
| ACCAAGCAAUAUUACGGCCA | 0.134 ± 0.12 | -0.654 ± 0.099 |
| ACCAAGCAAUAUUACGGCUG | -0.288 ± 0.081 | -1.55 ± 0.068 |
| ACCAAGCAAUAUUACGGUCC | -1.07 ± 0.12 | -2.8 ± 0.12 |
| ACCAAGCAAUAUUACGUACG | -1.28 ± 0.092 | -2.52 ± 0.083 |
| ACCAAGCAAUAUUACGUAGC | -2.44 ± 0.13 | -3.58 ± 0.13 |
| ACCAAGCAAUAUUACGUGGG | -2.4 ± 0.11 | -3.46 ± 0.13 |
| ACCAAGCAAUAUUACGUUAU | -2.04 ± 0.093 | -2.95 ± 0.087 |
| ACCAAGCAAUAUUACGUUGG | -2.22 ± 0.14 | -3.54 ± 0.12 |
| ACCCAGCAAUAUUACGAACA | -1.35 ± 0.13 | -0.802 ± 0.11 |
| ACCCAGCAAUAUUACGACAA | -1.09 ± 0.1 | -1.66 ± 0.1 |
| ACCCAGCAAUAUUACGACCG | -0.527 ± 0.18 | -2.05 ± 0.17 |
| ACCCAGCAAUAUUACGAGUA | -1.02 ± 0.079 | -2.39 ± 0.12 |
| ACCCAGCAAUAUUACGCGGC | -2.76 ± 0.26 | -2.93 ± 0.17 |
| ACCCAGCAAUAUUACGCGUU | 0.328 ± 0.066 | -0.424 ± 0.049 |
| ACCCAGCAAUAUUACGCUCA | -0.324 ± 0.087 | -0.397 ± 0.065 |
| ACCCAGCAAUAUUACGGAAU | -0.0542 ± 0.07 | -0.884 ± 0.054 |
| ACCCAGCAAUAUUACGGCCU | 0.0547 ± 0.067 | -0.518 ± 0.052 |
| ACCCAGCAAUAUUACGGCUA | 0.23 ± 0.1 | -0.684 ± 0.1 |
| ACCCAGCAAUAUUACGUAAG | -0.47 ± 0.069 | -1.13 ± 0.049 |
| ACCCAGCAAUAUUACGUCGU | -0.318 ± 0.051 | -0.24 ± 0.039 |
| ACCCAGCAAUAUUACGUGCU | -1.67 ± 0.12 | -4.5 ± 0.23 |
| ACCCAGCAAUAUUACGUGUC | -1.75 ± 0.099 | -3.36 ± 0.099 |
| ACCCAGCAAUAUUACGUUUA | -1.01 ± 0.072 | -1.57 ± 0.066 |
| ACCGAGCAAUAUUACGAACU | -0.803 ± 0.14 | -2.13 ± 0.13 |
